{"source": "patent US8969081B2", "about": "“Caudal motor neuron derived from embryonic stem cells under conditions essentially free of any retinoid” (The Trustees of Columbia University in the City of New York, priority 2008, dated 2015)", "molecules": {"B1": {"name": "Gdf11: Growth differentiation factor 11, recombinant human Gdf11/Bmp11 (protein, UniProt O95390 299-407, looked up)", "Growth/differentiation factor …": "NLGLDCDEHSSESRCCRYPLTVDFEAFGWDWIIAPKRYKANYCSGQCEYMFMQKYPHTHLVQQANPRGSAGPCCTPTKMSPINMLYFNDKQQIIYGKIPGMVVDRCGCS"}, "B2": {"name": "GDNF: glial cell line-derived neurotrophic factor, recombinant rat GDNF (protein, UniProt Q07731 78-211, looked up)", "Glial cell line-derived …": "SPDKQAAALPRRERNRQAAAASPENSRGKGRRGQRGKNRGCVLTAIHLNVTDLGLGYETKEELIFRYCSGSCEAAETMYDKILKNLSRSRRLTSDKVGQACCRPVAFDDDLSFLDDSLVYHILRKHSAKRCGCI"}, "B3": {"name": "Dkk1: Wnt antagonist, recombinant mouse Dickkopf-1 (protein, UniProt O54908 32-272, looked up)", "Dickkopf-related protein 1": "TLNSVLINSNAIKNLPPPLGGAGGQPGSAVSVAPGVLYEGGNKYQTLDNYQPYPCAEDEECGSDEYCSSPSRGAAGVGGVQICLACRKRRKRCMRHAMCCPGNYCKNGICMPSDHSHFPRGEIEESIIENLGNDHNAAAGDGYPRRTTLTSKIYHTKGQEGSVCLRSSDCAAGLCCARHFWSKICKPVLKEGQVCTKHKRKGSHGLEIFQRCYCGEGLACRIQKDHHQASNSSRLHTCQRH"}}, "key": {"[1]": {"system": "differentiating ES cells / ES-MNs", "assay": "Rostro-caudal patterning of differentiating ES cells (Hox / positional marker immunostaining)", "type": "cell-based, mouse", "conditions": "for Rostro-caudal positional marker expression / segmental identity: EBs supplemented on Day 3, markers examined two to four days later; for Rostro-caudal identity of MNs after FGF2 (Hoxd9): 100 ng/ml on day 3", "procedure": "(§1) Differentiation of cervical level motor neurons from mouse ES cells was performed as previously described (Wichterle et al., 2002). For differentiation of caudal brachial level MNs from ES cells, ES cells were grown in ES cell medium for two days, dissociated and plated into non-adherent tissue culture dishes using ADFNK medium at a density of 20,000 cells/ml. Medium is changed each day but not on Day 3 and Day 4 of differentiation (three and four days after dissociation of ES cells and plating into differentiation medium, respectively). Addition of any factors to differentiating embryonic bodies (EBs) was performed on Day 3. These included: 1 μg/ml Dickopf-1 Dkk1 (R&D Systems), FGF Receptor Inhibitor (PD173074, 100 nM final concentration), FGFb (Recombinant Human, FTF-basic, 120-17, PeproTech), rhGdf11 (R&D Systems, Cat#1958-GD). GDNF (10 ng/ml, R&D Systems) was supplemented on Day 5 of differentiation in selected cultures.\n(§2) For immunocytochemical analysis, embryonic bodies (EBs) were dissociated using 0.05% Trypsin-EDTA on Day 6 and plated at low densities on laminin coated coverslips using ADFNB medium supplemented with 10 ng/ml Glial cell-derived neurotrophic factor (GDNF). For quantification of MN subtypes, EBs were collected on Day 6 and dissociated using 0.05 Trypsin-EDTA. Dissociated cells were plated on laminin coated coverslips using ADFNB medium (DMEM/F12, Neurobasal, 1 ml B27 50× supplement and optional 5 ng/ml of GDNF to enhance survival of MN cultures) and fixed with 4% PFA one day later.\n(§3) Immunocytochemistry on ES cell-derived MNs and EBs was performed as previously described (Wichterle et al., 2002). Antibodies against the following proteins were used in the analysis during this study: Otx2, Hoxa5, Hoxc8, Hoxc6, Hoxc9, Hoxd9, Hoxd10, Foxp1, Lhx3, Pea3, Scip, NeuN, dsRed, NF.\nFor each experiment, 10 distinct randomized image fields were taken using a confocal microscope LSM Zeiss Meta 510. Expression of all markers used for quantifications was gated to GFP positive cells, ES cell-derived spinal MNs. Images were analyzed for the expression of the above stated markers in the context of the ES cell-derived caudal brachial MNs. Each quantification is the result of at least three independent experiments (three independent differentiation experiments).\nAll experiments were performed with HBG3 ES cell line harboring Hb9-GFP transgene (Wichterle et al., 2002) and key experiments were confirmed using a control MM13 ES cell line. Differentiation of HBG3 ES cell line under RA/Hh conditions into rostral cervical MNs was performed as previously described (Wichterle et al., 2002; Wichterle and Peljto, 2008). For production of cervical MNs, ES cells were plated at 50,000 cells/ml in ADFNK differentiation medium [Advanced D-MEM/F-12 (Invitrogen): Neurobasal medium (Invitrogen) (1:1), 10% Knockout Serum Replacement (Invitrogen), […] L-Glutamine (Invitrogen), 0.1 mM β-mercaptoethanol (Sigma), and Pen/Strep (Invitrogen)]. Medium was completely changed on days 1, 2 and of differentiation. EBs were split 1:4 on day 2 of differentiation and the medium was supplemented with 1 μM all-trans retinoic acid (RA, Sigma) and Hh agonist (0.5 μM SAG, Calbiochem or 1 μM HhAg1.3, (Frank-Kamenetsky et al., 2002)). To generate caudal brachial level MNs from ES cells under FGF/Hh conditions, ES cells were plated into non-adherent tissue culture dishes in ADFNK medium (˜20,000 cells/ml). Embryoid bodies (EBs) were split 1:4 on day 2 of differentiation and the medium was changed on days 1, 2 and 5. Selected cultures were supplemented with the following reagents: 10 nM-1 μM RA, 10 nM-1 μM Hh Agonist, 1 μg/ml recombinant mouse Dickkopf-1 (R&D Systems), 50-100 nM FGF/VEGF Receptor Tyrosine Kinase Inhibitor (PD173074, Calbiochem) (Mohammadi et al., 1998), 100-625 ng/ml recombinant human bFGF (PeproTech), 20 ng/ml recombinant human Gdf11/Bmp11 (R&D Systems), 10 ng/ml recombinant rat GDNF (R&D Systems). […]"}, "[2]": {"system": "ES-MNs", "assay": "Motor pool identity of ES-MNs (Pea3, Scip) in response to GDNF", "type": "cell-based, mouse", "procedure": "as §1, §2, §3\nAll experiments were performed with HBG3 ES cell line harboring Hb9-GFP transgene (Wichterle et al., 2002) and key experiments were confirmed using a control MM13 ES cell line. Differentiation of HBG3 ES cell line under RA/Hh conditions into rostral cervical MNs was performed as previously described (Wichterle et al., 2002; Wichterle and Peljto, 2008). For production of cervical MNs, ES cells were plated at 50,000 cells/ml in ADFNK differentiation medium [Advanced D-MEM/F-12 (Invitrogen): Neurobasal medium (Invitrogen) (1:1), 10% Knockout Serum Replacement (Invitrogen), […] L-Glutamine (Invitrogen), 0.1 mM β-mercaptoethanol (Sigma), and Pen/Strep (Invitrogen)]. Medium was completely changed on days 1, 2 and of differentiation. EBs were split 1:4 on day 2 of differentiation and the medium was supplemented with 1 μM all-trans retinoic acid (RA, Sigma) and Hh agonist (0.5 μM SAG, Calbiochem or 1 μM HhAg1.3, (Frank-Kamenetsky et al., 2002)). To generate caudal brachial level MNs from ES cells under FGF/Hh conditions, ES cells were plated into non-adherent tissue culture dishes in ADFNK medium (˜20,000 cells/ml). Embryoid bodies (EBs) were split 1:4 on day 2 of differentiation and the medium was changed on days 1, 2 and 5. Selected cultures were supplemented with the following reagents: 10 nM-1 μM RA, 10 nM-1 μM Hh Agonist, 1 μg/ml recombinant mouse Dickkopf-1 (R&D Systems), 50-100 nM FGF/VEGF Receptor Tyrosine Kinase Inhibitor (PD173074, Calbiochem) (Mohammadi et al., 1998), 100-625 ng/ml recombinant human bFGF (PeproTech), 20 ng/ml recombinant human Gdf11/Bmp11 (R&D Systems), 10 ng/ml recombinant rat GDNF (R&D Systems).\nFor immunocytochemical analysis, EBs were dissociated using 0.05% Trypsin-EDTA (Invitrogen) on day 6 and plated at low density on coverslips (Carolina Biological) first coated with 0.001% solution of poly-1-ornithine (Sigma; diluted in water) and then with mouse laminin ([…] final concentration in PBS; Invitrogen). Cultures were plated and maintained using ADFNB culture medium [Advanced D-MEM/F12:Neurobasal (1:1), 1× B27 supplement (Invitrogen), […] L-Glutamine, and 1× Pen/Strep]. […]"}, "[3]": {"conditions": "Example 1, 1 μg/ml on Day 3 of differentiation"}}, "note": "“Also recorded” adds a separate entry of the source."}
{"molecule": "CCN(CC)CCCCNc1ncc2cc(-c3cc(OC)cc(OC)c3)c(NC(=O)NC(C)(C)C)nc2n1", "note": "[PD173074, reference compound]", "values": [{"measurement": "Hoxc8+ cells", "setting": "[1]; Example 1, 100 nM on Day 3 of differentiation", "result": "complete loss of Hoxc8+ cells"}, {"measurement": "Specification of Hoxc8+ ES-MNs", "setting": "[1]; Example 2, 50 nM on day 3 of differentiation (FIG. 22H)", "result": "generation of ES-MNs that expressed Hoxa5 but lacked Hoxc8 expression; also recorded: selectively prevented specification of caudal brachial Hoxc8^+ ES-MNs"}]}
{"molecule": "FGF-2: basic fibroblast growth factor, recombinant human bFGF", "values": [{"measurement": "Rostro-caudal positional marker expression / segmental identity", "setting": "[1]; Example 1", "result": "induced predominantly thoracic identity marked by Hoxd9 expression"}, {"measurement": "Induction of brachial or thoracic markers by FGF-2", "setting": "[1]; Example 1, in the presence of RA", "result": "not sufficient to induce expression of brachial or thoracic markers"}, {"measurement": "Rostro-caudal identity of MNs after FGF2 (Hoxd9)", "setting": "[1]; Example 2, stained day 7, listed as FGF", "result": "significant increase in Hoxd9 expressing cells"}, {"measurement": "Rostro-caudal identity of MNs after FGF2 (Hoxd9)", "setting": "[1]; Example 2, stained day 7, listed as FGF2", "result": "Hoxd9^+ thoracic; also recorded: increase in the number of Hoxd9^+ MNs"}, {"measurement": "Specification of Hoxc8+ ES-MNs by FGF2 added to RA/Hh", "setting": "[1]; up to 625 ng/ml FGF2 added to 1 μM RA/Hh differentiation condition", "result": "did not result in the specification of Hoxc8^+ ES-MNs"}]}
{"molecule": "B1", "values": [{"measurement": "Rostro-caudal positional marker expression / segmental identity", "setting": "[1]; Example 1", "result": "emergence of even more caudal Hoxd10 positive lumbar nerve cells"}, {"measurement": "Rostro-caudal identity of MNs after Gdf11 (Hoxd10)", "setting": "[1]; Example 2, 20 ng/ml on day 3, stained day 7", "result": "Hoxd10^+ lumbar; also recorded: specification of MNs expressing Hoxd10; also recorded: significant increase in Hoxd10 expressing ES-MNs"}]}
{"molecule": "B2", "values": [{"measurement": "Pea3+ ES-MNs expressing Isl1", "setting": "[2]; GDNF 10 ng/ml on day 5", "result": "~90", "unit": "%"}, {"measurement": "Pea3+ ES-MNs expressing Lhx1", "setting": "[2]; GDNF 10 ng/ml on day 5", "result": "~10", "unit": "%"}, {"measurement": "Percentage of Scip+ MNs, presence versus absence of GDNF", "setting": "[2]; brachial MNs", "result": "not significantly different"}, {"measurement": "LMC (FoxP1+) MNs expressing Pea3", "setting": "[2]; caudal brachial ES-MNs, 10 ng/ml GDNF on day 5", "result": "~20", "unit": "%"}, {"measurement": "Pea3 expression in cervical (RA/Hh differentiated) MNs treated with GDNF", "setting": "[2]; cervical ES-MNs", "result": "no Pea3 expressing MNs were detected; also recorded: not sufficient to induce Pea3 expression; also recorded: do not acquire expression of Pea3"}, {"measurement": "Scip+ FoxP1+ ES-MNs", "setting": "[2]; presence or absence of GDNF", "result": "~10", "unit": "%"}]}
{"molecule": "B3", "values": [{"measurement": "Neural specification (NeuN)", "setting": "[1]; [3]", "result": "did not interfere with neural specification"}, {"measurement": "Otx2 expression (rostral neural identity)", "setting": "[1]; [3]", "result": "induction of Otx2 expression"}, {"measurement": "Spinal identity (Hoxa5, Hoxc8, Hoxd9, Hoxd10 expression)", "setting": "[1]; [3]", "result": "lost their spinal identity"}, {"measurement": "Otx2+ forebrain/midbrain neural cells", "setting": "[1]; Example 2, 1 μg/ml on day 2, Otx2 on day 5", "result": "appearance of Otx2^+ forebrain/midbrain neural cells"}, {"measurement": "Specification of spinal cells (Hox and MN markers)", "setting": "[1]; Example 2, 1 μg/ml on day 2 of differentiation", "result": "lacked spinal character; also recorded: prevented specification of spinal cells"}]}
